The values that follow come from patent US20230270823A1 (WUXI BIOLOGICS IRELAND, published 2023).

The target in experiment [1] is IL-15Rβ/γ chain (IL-2Rβ and common gamma chain) on cyno CD8+ T cells and NK cells (cynomolgus monkey). Briefly: cell-based or functional assay.
Experiment [2] deals with T1, IL-15Rβ/γ chain (IL-2Rβ and common gamma chain) on human CD8+ T cells and NK cells (human, UniProt P14784 27-551; P31785 23-369).
T1 sequence (looked up) 1: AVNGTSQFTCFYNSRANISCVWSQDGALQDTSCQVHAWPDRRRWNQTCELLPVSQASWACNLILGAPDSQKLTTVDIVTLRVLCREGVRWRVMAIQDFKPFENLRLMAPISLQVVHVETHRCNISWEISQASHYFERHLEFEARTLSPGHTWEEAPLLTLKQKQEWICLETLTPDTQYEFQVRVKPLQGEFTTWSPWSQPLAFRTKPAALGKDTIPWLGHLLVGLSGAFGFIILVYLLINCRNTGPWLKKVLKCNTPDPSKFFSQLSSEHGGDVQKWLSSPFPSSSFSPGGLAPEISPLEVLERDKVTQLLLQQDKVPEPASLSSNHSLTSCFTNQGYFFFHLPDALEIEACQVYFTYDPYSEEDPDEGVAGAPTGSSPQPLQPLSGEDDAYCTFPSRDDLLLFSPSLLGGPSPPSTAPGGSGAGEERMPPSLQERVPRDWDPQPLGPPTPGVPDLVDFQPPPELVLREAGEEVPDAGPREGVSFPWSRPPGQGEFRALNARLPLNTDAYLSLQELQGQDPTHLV
T1 sequence (looked up) 2: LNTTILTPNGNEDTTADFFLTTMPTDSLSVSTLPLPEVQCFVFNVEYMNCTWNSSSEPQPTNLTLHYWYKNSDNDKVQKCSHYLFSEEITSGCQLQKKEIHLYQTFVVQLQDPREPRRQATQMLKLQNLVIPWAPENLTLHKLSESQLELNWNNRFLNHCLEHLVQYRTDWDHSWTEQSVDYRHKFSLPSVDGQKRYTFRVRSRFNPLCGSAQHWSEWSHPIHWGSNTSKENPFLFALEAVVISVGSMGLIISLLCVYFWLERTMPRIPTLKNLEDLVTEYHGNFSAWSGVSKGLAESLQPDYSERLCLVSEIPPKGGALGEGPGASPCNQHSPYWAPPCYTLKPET
Nature of the experiment: cell-based or functional assay.

B1: W327151-TXU1.P1-V0001.uIgG1v805 (Fc fusion)
chain 1: NWVNVISADLKKIEDLIQSMHIDATLYTESDVHPSCKVTAMKCFLLELQVISLESGDASIHDTVENLIILANNSLSSNGNVTESGCKECEELEEKNIKEFLQSFVHIVQMFINTSGGGGSEPKSSDKTHTCPPCPAPELLRGPSVFLFPPKPKDTLYITREPEVTCVVVDVSHEDPEVKFNWYVDGVEVHNAKTKPREEQYNSTYRVVSVLTVLHQDWLNGKEYKCKVSNKARPAPIEKTISKAKGQPREPQVYTLPPCREEMTKNQVSLWCLVKGFYPSDIAVEWESNGQPENNYKTTPPVLDSDGSFFLYSKLTVDKSRWQQGNVFSCSVMHEALHNHYTQKSLSLSPG
chain 2: ITCPPPMSVEHADIWVKSYSLYSRERYICNSGFKRKAGTSSLTECVLNKATNVAHWTTPSLKCIRGGGGSEPKSSDKTHTCPPCPAPELLRGPSVFLFPPKPKDTLYITREPEVTCVVVDVSHEDPEVKFNWYVDGVEVHNAKTKPREEQYNSTYRVVSVLTVLHQDWLNGKEYKCKVSNKARPAPIEKTISKAKGQPREPQVCTLPPSREEMTKNQVSLSCAVKGFYPSDIAVEWESNGQPENNYKTTPPVLDSDGSFFLVSKLTVDKSRWQQGNVFSCSVMHEALHNHYTQKSLSLSPG
Take B1: in experiment [1], the “EC50, % Ki67 expression, cyno donor 1 CD8+ T cells” value is 29.2 nM; the “EC50, % Ki67 expression, cyno donor 1 NK cells” value was 65.6 nM; the “Fold reduced (EC50, % Ki67), cyno donor 1 CD8+ T cells” value stood at 325 fold; the “Fold reduced (EC50, % Ki67), cyno donor 1 NK cells” value was found to be 729 fold. Further, in experiment [2], the “EC50, % Ki67 expression, human CD8+ T cells” value worked out at 338 nM; the “EC50, % Ki67 expression, human NK cells” value turned out to be 29.2 nM; the “Fold reduced (EC50, % Ki67), human CD8+ T cells” value is 1840 fold; the “Fold reduced (EC50, % Ki67), human NK cells” value turned out to be 1390 fold.

B2: W327151-TXU1.P1-V0006.uIgG1v805 (Fc fusion)
chain 1: NWVNVISDLKKIEDLIQSMHIDATLYTESDVHPSCKVTAMKCFLLELQVISLESGDASIHDTVENALIILANNSLSSNGNVTESGCKECEELEEKNIKEFLQSFVHIVQMFINTSGGGGSEPKSSDKTHTCPPCPAPELLRGPSVFLFPPKPKDTLYITREPEVTCVVVDVSHEDPEVKFNWYVDGVEVHNAKTKPREEQYNSTYRVVSVLTVLHQDWLNGKEYKCKVSNKARPAPIEKTISKAKGQPREPQVYTLPPCREEMTKNQVSLWCLVKGFYPSDIAVEWESNGQPENNYKTTPPVLDSDGSFFLYSKLTVDKSRWQQGNVFSCSVMHEALHNHYTQKSLSLSPG
chain 2: ITCPPPMSVEHADIWVKSYSLYSRERYICNSGFKRKAGTSSLTECVLNKATNVAHWTTPSLKCIRGGGGSEPKSSDKTHTCPPCPAPELLRGPSVFLFPPKPKDTLYITREPEVTCVVVDVSHEDPEVKFNWYVDGVEVHNAKTKPREEQYNSTYRVVSVLTVLHQDWLNGKEYKCKVSNKARPAPIEKTISKAKGQPREPQVCTLPPSREEMTKNQVSLSCAVKGFYPSDIAVEWESNGQPENNYKTTPPVLDSDGSFFLVSKLTVDKSRWQQGNVFSCSVMHEALHNHYTQKSLSLSPG
On to B2, for which, in experiment [1], the “EC50, % Ki67 expression, cyno donor 2 CD8+ T cells” value worked out at 2.59 nM; the “EC50, % Ki67 expression, cyno donor 2 NK cells” value was 1.04 nM; the “Fold reduced (EC50, % Ki67), cyno donor 2 CD8+ T cells” value amounted to 153 fold; the “Fold reduced (EC50, % Ki67), cyno donor 2 NK cells” value was determined as 130 fold. Further, in experiment [2], the “EC50, % Ki67 expression, human CD8+ T cells” value stood at 13.5 nM; the “EC50, % Ki67 expression, human NK cells” value is 1.58 nM; the “Fold reduced (EC50, % Ki67), human CD8+ T cells” value came to 73.5 fold; the “Fold reduced (EC50, % Ki67), human NK cells” value came out at 75.1 fold.

B3: W327151-TXU1.P1-V0005.uIgG1v805 (Fc fusion)
chain 1: NWVNVISDLKKIEDLIQSMHIDATLYTESDVHPSCKVTAMKCFLLELQVISLESGDASIHDTVEANLIILANNSLSSNGNVTESGCKECEELEEKNIKEFLQSFVHIVQMFINTSGGGGSEPKSSDKTHTCPPCPAPELLRGPSVFLFPPKPKDTLYITREPEVTCVVVDVSHEDPEVKFNWYVDGVEVHNAKTKPREEQYNSTYRVVSVLTVLHQDWLNGKEYKCKVSNKARPAPIEKTISKAKGQPREPQVYTLPPCREEMTKNQVSLWCLVKGFYPSDIAVEWESNGQPENNYKTTPPVLDSDGSFFLYSKLTVDKSRWQQGNVFSCSVMHEALHNHYTQKSLSLSPG
chain 2: ITCPPPMSVEHADIWVKSYSLYSRERYICNSGFKRKAGTSSLTECVLNKATNVAHWTTPSLKCIRGGGGSEPKSSDKTHTCPPCPAPELLRGPSVFLFPPKPKDTLYITREPEVTCVVVDVSHEDPEVKFNWYVDGVEVHNAKTKPREEQYNSTYRVVSVLTVLHQDWLNGKEYKCKVSNKARPAPIEKTISKAKGQPREPQVCTLPPSREEMTKNQVSLSCAVKGFYPSDIAVEWESNGQPENNYKTTPPVLDSDGSFFLVSKLTVDKSRWQQGNVFSCSVMHEALHNHYTQKSLSLSPG
Consider B3, for which, in experiment [1], the “EC50, % Ki67 expression, cyno donor 2 CD8+ T cells” value was 100 nM; the “EC50, % Ki67 expression, cyno donor 2 NK cells” value is 26.3 nM; the “Fold reduced (EC50, % Ki67), cyno donor 2 CD8+ T cells” value came to 5890 fold; the “Fold reduced (EC50, % Ki67), cyno donor 2 NK cells” value came out at 3290 fold. Moreover, in experiment [2], the “EC50, % Ki67 expression, human CD8+ T cells” value was 352 nM; the “EC50, % Ki67 expression, human NK cells” value came out at 106 nM; the “Fold reduced (EC50, % Ki67), human CD8+ T cells” value came to 1910 fold; the “Fold reduced (EC50, % Ki67), human NK cells” value is 5030 fold.

B4: W327151-TXU1.P1-V0002.uIgG1v805 (Fc fusion)
chain 1: NWVNVISDALKKIEDLIQSMHIDATLYTESDVHPSCKVTAMKCFLLELQVISLESGDASIHDTVENLIILANNSLSSNGNVTESGCKECEELEEKNIKEFLQSFVHIVQMFINTSGGGGSEPKSSDKTHTCPPCPAPELLRGPSVFLFPPKPKDTLYITREPEVTCVVVDVSHEDPEVKFNWYVDGVEVHNAKTKPREEQYNSTYRVVSVLTVLHQDWLNGKEYKCKVSNKARPAPIEKTISKAKGQPREPQVYTLPPCREEMTKNQVSLWCLVKGFYPSDIAVEWESNGQPENNYKTTPPVLDSDGSFFLYSKLTVDKSRWQQGNVFSCSVMHEALHNHYTQKSLSLSPG
chain 2: ITCPPPMSVEHADIWVKSYSLYSRERYICNSGFKRKAGTSSLTECVLNKATNVAHWTTPSLKCIRGGGGSEPKSSDKTHTCPPCPAPELLRGPSVFLFPPKPKDTLYITREPEVTCVVVDVSHEDPEVKFNWYVDGVEVHNAKTKPREEQYNSTYRVVSVLTVLHQDWLNGKEYKCKVSNKARPAPIEKTISKAKGQPREPQVCTLPPSREEMTKNQVSLSCAVKGFYPSDIAVEWESNGQPENNYKTTPPVLDSDGSFFLVSKLTVDKSRWQQGNVFSCSVMHEALHNHYTQKSLSLSPG
With B4, in experiment [2], the “EC50, % Ki67 expression, human CD8+ T cells” value was determined as 174 nM; the “EC50, % Ki67 expression, human NK cells” value is 19.1 nM; the “Fold reduced (EC50, % Ki67), human CD8+ T cells” value came out at 947 fold; the “Fold reduced (EC50, % Ki67), human NK cells” value stood at 911 fold.

B5: W327151-TXU1.P1-V0004.uIgG1v805 (Fc fusion)
chain 1: NWVNVISDLKAKIEDLIQSMHIDATLYTESDVHPSCKVTAMKCFLLELQVISLESGDASIHDTVENLIILANNSLSSNGNVTESGCKECEELEEKNIKEFLQSFVHIVQMFINTSGGGGSEPKSSDKTHTCPPCPAPELLRGPSVFLFPPKPKDTLYITREPEVTCVVVDVSHEDPEVKFNWYVDGVEVHNAKTKPREEQYNSTYRVVSVLTVLHQDWLNGKEYKCKVSNKARPAPIEKTISKAKGQPREPQVYTLPPCREEMTKNQVSLWCLVKGFYPSDIAVEWESNGQPENNYKTTPPVLDSDGSFFLYSKLTVDKSRWQQGNVFSCSVMHEALHNHYTQKSLSLSPG
chain 2: ITCPPPMSVEHADIWVKSYSLYSRERYICNSGFKRKAGTSSLTECVLNKATNVAHWTTPSLKCIRGGGGSEPKSSDKTHTCPPCPAPELLRGPSVFLFPPKPKDTLYITREPEVTCVVVDVSHEDPEVKFNWYVDGVEVHNAKTKPREEQYNSTYRVVSVLTVLHQDWLNGKEYKCKVSNKARPAPIEKTISKAKGQPREPQVCTLPPSREEMTKNQVSLSCAVKGFYPSDIAVEWESNGQPENNYKTTPPVLDSDGSFFLVSKLTVDKSRWQQGNVFSCSVMHEALHNHYTQKSLSLSPG
Turning to B5, in experiment [1], the “EC50, % Ki67 expression, cyno donor 1 CD8+ T cells” value worked out at 3.37 nM; the “EC50, % Ki67 expression, cyno donor 1 NK cells” value turned out to be 10.3 nM; the “Fold reduced (EC50, % Ki67), cyno donor 1 CD8+ T cells” value turned out to be 37 fold; the “Fold reduced (EC50, % Ki67), cyno donor 1 NK cells” value worked out at 115 fold. Also, in experiment [2], the “EC50, % Ki67 expression, human CD8+ T cells” value stood at 22.5 nM; the “EC50, % Ki67 expression, human NK cells” value was 6.72 nM; the “Fold reduced (EC50, % Ki67), human CD8+ T cells” value was determined as 122 fold; the “Fold reduced (EC50, % Ki67), human NK cells” value amounted to 320 fold.
